One assay concerns the target Gαi1. The experiment in a line: cell-based or functional assay.
For another assay, the target named is Gαq/i chimera. As to the kind of experiment: cell-based or functional assay.

The record followed here is patent US20030119716A1, “Methods for screening, treating and diagnosing G-protein coupled receptor-related disorders and compositions thereof” (Wyeth, priority 2001, published 2003).

B1: human RGS2 (protein, UniProt P41220 1-211, looked up)
chain: MQSAMFLAVQHDCRPMDKSAGSGHKSEEKREKMKRTLLKDWKTRLSYFLQNSSTPGKPKTGKKSKQQAFIKPSPEEAQLWSEAFDELLASKYGLAAFRAFLKSEFCEENIEFWLACEDFKKTKSPQKLSSKARKIYTDFIEKEAPKEINIDFQTKTLIAQNIQEATSGCFTTAQKRVYSLMENNSYPRFLESEFYQDLCKKPQITTEPHAT
For the molecule B1, the attenuation of SRE activation (SRE-luciferase reporter, CHO-D2R cells co-transfected with Gαi1) with Gαi1 was 25 to 30%. In addition, the reduction in SRE activation (SRE-luciferase reporter, CHO-D2R cells) with Gαq/i chimera was 70%.
